The text below walks through data of the supplement of paper PMC12764529.

± gives the half width of the 95% confidence interval.

Data set [1] is described as follows: folding stability dG unfold from trypsin proteolysis; higher = more stable. An outline of the steps:
(§1)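 Designed mini-proteins with no cysteine and under 80 residues were kept only if AlphaFold2 dimer inter-PAE was above 15. In a PA-tagged cDNA display construct, they were digested with trypsin and chymotrypsin and then sequenced. K50 was inferred by Bayesian fitting of counts, and unfolding free energy was derived per protease or combined against a sequence-predicted unfolded-state K50 and a shared folded-state K50.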

A short description of data set [2]: folding stability dG unfold from chymotrypsin proteolysis; higher = more stable. An outline of the steps: as §1
The nature of data set [3]: folding stability dG unfold (combined trypsin and chymotrypsin); higher = more stable. A digest of the protocol: as §1

Turning to “SAGGSAGGSAGGHMVMITITIPIKKGAEIKFGDWDIKVPPGEQIQITIMIPVPPPDDDKSAGGSAGGSAGGS [r10_949_TrROS]”, the figures for the “folding stability dG unfold” value in data set [1], in data set [2] and in data set [3] were 2.91 ± 0.16 kcal/mol, 2.8 ± 0.21 kcal/mol and 2.79 ± 0.3 kcal/mol, respectively.

Take “SAGGSAGGSAGGIAEALKAAFPDEGVEVVSIHPDGKVEVRVDGTPELREKVEKAVKELLSSAGGSAGGSAGG [r11_418_TrMRF]”: the figures for the “folding stability dG unfold” value in data set [1], in data set [2] and in data set [3] were 1.08 ± 0.087 kcal/mol, 0.621 ± 0.067 kcal/mol and 0.798 ± 0.18 kcal/mol, respectively.

“SAGGSAGGSAGGIEDMAEKNPDWKIVEPIEIEIPYYNPDGKWYEVEYTIFVIVPPGDEISAGGSAGGSAGGS [r10_0_TrROS]”: the “folding stability dG unfold” value stood at 1.46 ± 0.16 kcal/mol in data set [1], 2.12 ± 0.075 kcal/mol in data set [2] and 1.79 ± 0.23 kcal/mol in data set [3].

Consider “SAGGSAGGSAGGIGEGTPIERLIEGKPIPFYVDESTGKAYYTLPEDKKIETTIEDPEKVSAGGSAGGSAGGS [r10_1185_TrMRF]”, for which the “folding stability dG unfold” value was -0.377 ± 0.19 kcal/mol in data set [1], 0.442 ± 0.22 kcal/mol in data set [2] and 0.202 ± 0.15 kcal/mol in data set [3].

Consider “SAGGSAGGSAGGIKKGDKIKIVKVKVEKRYDKDGKLVEERIVSIEEEEIEVPSLEDLLKASAGGSAGGSAGG [r7_439_TrROS_Hall]”, for which the “folding stability dG unfold” value in data set [1] was 0.732 ± 0.14 kcal/mol; in data set [2], 0.739 ± 0.06 kcal/mol; in data set [3], 0.654 ± 0.25 kcal/mol.

Turning to “SAGGSAGGSAGGIKPGEKPVYKVKIYNEETGEELEVEFKTLEELEKLKIPGVKKIEVEKVSAGGSAGGSAGG [r7_793_TrROS_Hall]”, the “folding stability dG unfold” value in data set [1] worked out at 0.786 ± 0.16 kcal/mol; in data set [2] it was 1.35 ± 0.045 kcal/mol; in data set [3], 1.2 ± 0.2 kcal/mol.

As to “SAGGSAGGSAGGISPSANVKLVAVDPERGLVVAVAKDPNSGSVSVVVFDANGNSSILPASAGGSAGGSAGGS [r10_450_TrMRF]”, the “folding stability dG unfold” value in data set [1] is -0.317 ± 0.079 kcal/mol; in data set [2] it was 0.495 ± 0.029 kcal/mol; in data set [3], 0.267 ± 0.043 kcal/mol.

In the case of “SAGGSAGGSAGGITPEYVERARKEAQDQYPPGKEREIIIRNPDNGKEITIRYTPDKIEIMSAGGSAGGSAGG [r7_45_TrROS]”, the “folding stability dG unfold” value is 0.0182 ± 0.12 kcal/mol in data set [1], -0.289 ± 0.16 kcal/mol in data set [2] and -0.147 ± 0.24 kcal/mol in data set [3].

Consider “SAGGSAGGSAGGKAKIVDVKIEKEGNTVTIEVKIEVDGKLIATAKVRFTGPDGKLEIEIESAGGSAGGSAGG [r7_133_TrROS_Hall]”, for which the “folding stability dG unfold” value in data set [1] came out at 3.25 ± 0.16 kcal/mol; in data set [2] it was 2.9 ± 0.27 kcal/mol; in data set [3], 3.15 ± 0.15 kcal/mol.

For “SAGGSAGGSAGGKDPYLALKTVRVRLVRDYLLGDKPVKTELIEEADVPVLIVFEPEELLSAGGSAGGSAGGS [r10_492_TrMRF]”, the “folding stability dG unfold” value in data set [1] came to 0.0714 ± 0.069 kcal/mol; in data set [2], 0.536 ± 0.086 kcal/mol; in data set [3] it was 0.441 ± 0.053 kcal/mol.

As to “SAGGSAGGSAGGKDVRITVSPNNMRISIWKRDPNDGKWKPIGTIPMPPNDPDKALDQLKSAGGSAGGSAGGS [r10_275_TrROS]”, the “folding stability dG unfold” value in data set [1] is -0.216 ± 0.18 kcal/mol; in data set [2], -1.13 ± 0.91 kcal/mol; in data set [3], -0.446 ± 0.18 kcal/mol.

As to “SAGGSAGGSAGGKEEEARKLAEELAKELGLEIVEVKVERTEKEVKVTIRIKKDGKEIEFSAGGSAGGSAGGS [r10_161_TrROS_Hall]”, the “folding stability dG unfold” value in data set [1] amounted to 1.09 ± 0.048 kcal/mol; in data set [2], 1.36 ± 0.025 kcal/mol; in data set [3], 1.29 ± 0.12 kcal/mol.

As to “SAGGSAGGSAGGKEITIMMPSPEAIKKLLPPGWKITNIEPIGRDPEDGYPYYMITFKPDSAGGSAGGSAGGS [r10_256_TrROS]”, the “folding stability dG unfold” value was found to be 1.43 ± 0.018 kcal/mol in data set [1], 1.11 ± 0.042 kcal/mol in data set [2] and 1.3 ± 0.057 kcal/mol in data set [3].

Take “SAGGSAGGSAGGKEKKELYVVIKVDKNMTPEEIAEKLKKEFNVDKVEVEVREDGYLVVKVSAGGSAGGSAGG [r7_273_TrROS_Hall]”: the “folding stability dG unfold” value is 1.03 ± 0.098 kcal/mol in data set [1], 1.74 ± 0.084 kcal/mol in data set [2] and 1.62 ± 0.19 kcal/mol in data set [3].

As to “SAGGSAGGSAGGKIIVYNPETGKPEEVSPEDLEEIIKNTPGPLILKVGEGEIELNAKDISAGGSAGGSAGGS [r10_839_TrMRF]”, the “folding stability dG unfold” value in data set [1] was determined as 0.807 ± 0.051 kcal/mol; in data set [2], 0.862 ± 0.067 kcal/mol; in data set [3] it was 0.828 ± 0.12 kcal/mol.

As for “SAGGSAGGSAGGKIKDAEIVSVEYDPETGVLYMEVKLEDGSTYRIRFDLKTNKLTIEPVSAGGSAGGSAGGS [r10_674_TrROS_Hall]”, the “folding stability dG unfold” value came out at 3.29 ± 0.36 kcal/mol in data set [1], 4.91 ± 0.2 kcal/mol in data set [2] and 4.56 ± 0.3 kcal/mol in data set [3].

For “SAGGSAGGSAGGKIKLTVEKTEDGYLRVTAEDEDTKETVVITLPKGTTLEEALKLLKELSAGGSAGGSAGGS [r10_825_TrROS_Hall]”, the entries for the “folding stability dG unfold” value in data set [1], in data set [2] and in data set [3] were 3.14 ± 0.11 kcal/mol, 3.08 ± 0.14 kcal/mol and 3.19 ± 0.17 kcal/mol, respectively.

Regarding “SAGGSAGGSAGGKKIHLFMPKEVAEKFAKELEKLGIDSKEVEIEFHEVDIPPSLPPELKSAGGSAGGSAGGS [r10_602_TrMRF]”, the “folding stability dG unfold” value is -0.0238 ± 0.15 kcal/mol in data set [1], -0.594 ± 0.48 kcal/mol in data set [2] and -0.0833 ± 0.27 kcal/mol in data set [3].

As to “SAGGSAGGSAGGKKIIKVNLRIYDPVNPKVTVLPIEAPFDEIIKIAKEIAAPDQVVEISSAGGSAGGSAGGS [r10_397_TrMRF]”, the “folding stability dG unfold” value was -0.844 ± 0.16 kcal/mol in data set [1], -0.506 ± 0.097 kcal/mol in data set [2] and -0.654 ± 0.16 kcal/mol in data set [3].

With “SAGGSAGGSAGGKKIKILVKIKDLKKLKGLKPGDLALIEIEVEVKPEKKTEKKYTYKKKSAGGSAGGSAGGS [r10_1233_TrROS_Hall]”, the “folding stability dG unfold” value worked out at 0.432 ± 0.23 kcal/mol in data set [1], 0.908 ± 0.29 kcal/mol in data set [2] and 0.693 ± 0.21 kcal/mol in data set [3].

Regarding “SAGGSAGGSAGGKKKYIVVKVKVEVDENGNVTITLPNGKKITIPKEKVEVKPDGYLVIKLSAGGSAGGSAGG [r7_684_TrROS_Hall]”, the “folding stability dG unfold” value turned out to be 1.98 ± 0.07 kcal/mol in data set [1], 2.05 ± 0.028 kcal/mol in data set [2] and 2.05 ± 0.087 kcal/mol in data set [3].

On to “SAGGSAGGSAGGKKTITVTVKINGKTYRVEIKYDEKTKKVTIKIEVNGKKYEFEFELKDSAGGSAGGSAGGS [r10_438_TrROS_Hall]”, for which the “folding stability dG unfold” value in data set [1] was determined as 4.73 ± 0.96 kcal/mol; in data set [2], 4.42 ± 0.25 kcal/mol; in data set [3], 4.54 ± 0.36 kcal/mol.

With “SAGGSAGGSAGGKKTLVIEFDLEPGGLTAEEIEELLRPYTGKEVRLETHPDGKPVAVVEGSAGGSAGGSAGG [r7_330_TrMRF]”, the results for the “folding stability dG unfold” value in data set [1], in data set [2] and in data set [3] were -0.488 ± 0.1 kcal/mol, -0.616 ± 0.44 kcal/mol and -0.393 ± 0.16 kcal/mol, respectively.

Take “SAGGSAGGSAGGKKYIIKNKKTNKYIEVDVIEKDGKLYVYDKKTGKVHEVSLKDLEIVPSAGGSAGGSAGGS [r10_28_TrROS_Hall]”: the “folding stability dG unfold” value stood at 1.84 ± 0.088 kcal/mol in data set [1], 2.56 ± 0.036 kcal/mol in data set [2] and 2.33 ± 0.089 kcal/mol in data set [3].

Consider “SAGGSAGGSAGGKLKPGQKVLVIELKVTKVKTKKDGKKEFEFEITRIEIVEVPEGAKILSAGGSAGGSAGGS [r10_826_TrROS_Hall]”, for which the “folding stability dG unfold” value in data set [1] is 1.78 ± 0.051 kcal/mol; in data set [2], 1.01 ± 0.051 kcal/mol; in data set [3], 1.46 ± 0.14 kcal/mol.

Regarding “SAGGSAGGSAGGKLPPGDIIPMEFEAEFPVYKRDPEGGDWEPIGPMRIDFTIIIRLPPGSAGGSAGGSAGGS [r10_1115_TrROS]”, the “folding stability dG unfold” value came out at 2.5 ± 0.22 kcal/mol in data set [1], 2.91 ± 0.14 kcal/mol in data set [2] and 2.67 ± 0.22 kcal/mol in data set [3].

Take “SAGGSAGGSAGGKMWIMIPKNEPINLPPGFDKVEIMTNPDDGYVMIRVDSPEDFKRLLEASAGGSAGGSAGG [r7_172_TrROS]”: the “folding stability dG unfold” value in data set [1] is 1.405 ± 0.01 kcal/mol; in data set [2], 0.866 ± 0.058 kcal/mol; in data set [3], 1.2 ± 0.065 kcal/mol.

As for “SAGGSAGGSAGGKPKIEIELTFIDEDGYAYRLRAEIEIDEDGNVHIEVEIEKVPLPEGLSAGGSAGGSAGGS [r10_563_TrROS_Hall]”, the “folding stability dG unfold” value in data set [1] worked out at 2.9 ± 0.14 kcal/mol; in data set [2], 3.28 ± 0.13 kcal/mol; in data set [3], 3.18 ± 0.21 kcal/mol.

Consider “SAGGSAGGSAGGKPKKVILIEADTLEEALAAAEALAPPGAKVTVTLVERDGKLYLLVTVDSAGGSAGGSAGG [r7_877_TrROS_Hall]”, for which the “folding stability dG unfold” value in data set [1] was found to be 2.16 ± 0.045 kcal/mol; in data set [2] it was 3.75 ± 0.046 kcal/mol; in data set [3] it was 3.351 ± 0.028 kcal/mol.

Regarding “SAGGSAGGSAGGKPKTVKIIRDKKTNRLLIERDGKVYEFDVDNVEVREVTLEDLKEEELSAGGSAGGSAGGS [r10_512_TrROS_Hall]”, the figures for the “folding stability dG unfold” value in data set [1], in data set [2] and in data set [3] were 0.576 ± 0.14 kcal/mol, 1.2 ± 0.045 kcal/mol and 0.88 ± 0.14 kcal/mol, respectively.

“SAGGSAGGSAGGKPKVIEIEITDKNGKKRKIKLIEKDGYVYLYDEKTGKLVKKFKLKDLSAGGSAGGSAGGS [r10_589_TrROS_Hall]”: the “folding stability dG unfold” value in data set [1] was 3.04 ± 0.097 kcal/mol; in data set [2] it was 3.92 ± 0.051 kcal/mol; in data set [3], 3.61 ± 0.14 kcal/mol.

Turning to “SAGGSAGGSAGGKPKVIVIEGMSLEEIKALLAELPEDVTIVVRLPDGSTRTLTVRLPEPSAGGSAGGSAGGS [r10_514_TrROS_Hall]”, the figures for the “folding stability dG unfold” value in data set [1], in data set [2] and in data set [3] were 1.78 ± 0.077 kcal/mol, 1.13 ± 0.077 kcal/mol and 1.48 ± 0.095 kcal/mol, respectively.

As to “SAGGSAGGSAGGKPKYKIVEIKYDKETKTVTLKIKLENGETVEITVPPGTSLEDILKALSAGGSAGGSAGGS [r10_984_TrROS_Hall]”, the “folding stability dG unfold” value in data set [1] was 3.57 ± 0.098 kcal/mol; in data set [2] it was 3.9 ± 0.061 kcal/mol; in data set [3], 3.83 ± 0.055 kcal/mol.

On to “SAGGSAGGSAGGKPVKLEISFDKETNTITIKAVDEENKTVTETTIKVTFLPPPPPPPPKSAGGSAGGSAGGS [r10_331_TrROS_Hall]”, for which the figures for the “folding stability dG unfold” value in data set [1], in data set [2] and in data set [3] were 1.09 ± 0.12 kcal/mol, 2.14 ± 0.37 kcal/mol and 2.03 ± 0.48 kcal/mol, respectively.

In the case of “SAGGSAGGSAGGKRTLLIRVPPGASVEQVLEELKRLLPPGAKITVELDPETRTLRVTIDSAGGSAGGSAGGS [r10_163_TrROS_Hall]”, the “folding stability dG unfold” value in data set [1] is 3.28 ± 0.075 kcal/mol; in data set [2], 4.12 ± 0.057 kcal/mol; in data set [3], 3.89 ± 0.12 kcal/mol.
